Measured values: PMC8167871, “Three‐dimensional structures of avian beta‐microseminoproteins: insight from the chicken egg‐specific beta‐microseminoprotein 3 paralog” (FEBS Open Bio, 2021)

Molecular target: the molecule itself
Assay: MALDI-TOF mass spectrometry; top-down analysis of purified MSMB3 without any reduction or alkylation

B1: chicken beta-microseminoprotein 3 (MSMB3), proteoform lacking the C-terminal glycine, MSMB3(-G) (natural protein, chicken (Gallus gallus))
chain: RCYFRTSSKYGCISNRNLYVFGAVWKTEDCYQCKCKMNAMVCCSLVSIPKNYDRVNCVGLFHKKSCSIRVVKKTDPDISCKVYNGV
modifications: five disulfide bridges (C2-C43, C12-C35, C30-C66, C33-C42, C57-C80); delta mass of -1 Da on two lysines, especially K63 (potential oxidation of the lysine residue)
notes: chicken (Gallus gallus) MSMB3, mature protein without its C-terminal G87 (major proteoform of the purified sample, residues 1-86); numbers count on: the mature protein; The dimer seen by mass spectrometry and the crystal structure are of MSMB3(-G); the NMR sample is called only MSMB3; also called Gga-MSMB3; Gga-MSMB3 without G
stoichiometry N: 2
